Test results reported in patent US20100111943.

B1: PCAF (protein)
chain: MSEAGGAGPGGCGAGAGAGAGPGALPPQPAALPPAPPQGSPCAAAAGGSGACGPATAVAAAGTAEGPGGGGSARIAVKKAQLRSAPRAKKLEKLGVYSACKAEESCKCNGWKNPNPSPTPPRADLQQIIVSLTESCRSCSHALAAHVSHLENVSEEEMNRLLGIVLDVEYLFTCVHKEEDADTKQVYFYLFKLLRKSILQRGKPVVEGSLEKKPPFEKPSIEQGVNNFVQYKFSHLPAKERQTIVELAKMFLNRINYWHLEAPSQRRLRSPNDDISGYKENYTRWLCYCNVPQFCDSLPRYETTQVFGRTLLRSVFTVMRRQLLEQARQEKDKLPLEKRTLILTHFPKFLSMLEEEVYSQNSPIWDQDFLSASSRTSQLGIQTVINPPPVAGTISYNSTSSSLEQPNAGSSSPACKASSGLEANPGEKRKMTDSHVLEEAKKPRVMGDIPMELINEVMSTITDPAAMLGPETNFLSAHSARDEAARLEERRGVIEFHVVGNSLNQKPNKKILMWLVGLQNVFSHQLPRMPKEYITRLVFDPKHKTLALIKDGRVIGGICFRMFPSQGFTEIVFCAVTSNEQVKGYGTHLMNHLKEYHIKHDILNFLTYADEYAIGYFKKQGFSKEIKIPKTKYVGYIKDYEGATLMGCELNPRIPYTEFSVIIKKQKEIIKKLIERKQAQIRKVYPGLSCFKDGVRQIPIESIPGIRETGWKPSGKEKSKEPRDPDQLYSTLKSILQQVKSHQSAWPFMEPVKRTEAPGYYEVIRFPMDLKTMSERLKNRYYVSKKLFMADLQRVFTNCKEYNPPESEYYKCANILEKFFFSKIKEAGLIDK
B2: p300 protein (upstate) (protein)
chain: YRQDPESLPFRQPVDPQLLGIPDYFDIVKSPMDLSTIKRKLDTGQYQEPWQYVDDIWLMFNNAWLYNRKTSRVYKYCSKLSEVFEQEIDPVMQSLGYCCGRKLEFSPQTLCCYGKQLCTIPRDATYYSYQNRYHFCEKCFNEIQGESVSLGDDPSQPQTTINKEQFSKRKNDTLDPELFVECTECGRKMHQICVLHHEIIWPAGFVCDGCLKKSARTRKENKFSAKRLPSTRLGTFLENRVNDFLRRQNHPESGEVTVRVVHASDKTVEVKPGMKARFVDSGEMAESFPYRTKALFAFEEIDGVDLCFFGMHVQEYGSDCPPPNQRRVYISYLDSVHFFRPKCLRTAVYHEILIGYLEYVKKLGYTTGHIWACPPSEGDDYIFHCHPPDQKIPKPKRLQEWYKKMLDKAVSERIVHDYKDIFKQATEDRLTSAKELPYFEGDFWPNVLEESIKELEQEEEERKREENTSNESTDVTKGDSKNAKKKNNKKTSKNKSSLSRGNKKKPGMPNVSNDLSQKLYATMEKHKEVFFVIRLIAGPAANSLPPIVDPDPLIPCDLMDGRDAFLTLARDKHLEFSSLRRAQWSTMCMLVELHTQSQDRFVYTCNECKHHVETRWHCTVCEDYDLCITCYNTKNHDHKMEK

Target: FLAG (F)-tagged hsp90α (wild type), P07900

| Protein | in vitro acetylation of hsp90α, Western analysis with anti-AcK antibody |
| --- | --- |
| B1 | This was not seen with PCAF |
| B2 | Co-incubation with p300 was discovered to dose-dependently stimulate the acetylation of hsp90α |
